Assay results: the supplement of paper PMC9170038

test system: MS2 coat protein; assay: apparent KD of MS2 coat protein, switch ON state; designed switch direction (-1 OFF switch, 1 ON switch): -1; higher = weaker reporter binding; details: FMN input: 0 or 200 uM; Eterna round: R93 (includes R88 designs)
Procedure, shortened: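 For every design, apparent KD is the median of normalised binding-curve fits from its clusters. The RNA switches were transcribed on-chip from Illumina sequencing clusters and titrated with SNAP-549-labelled MS2 coat protein (twofold steps, 0.7 or 1.5 nM to 3 µM; 0.8–1.5 h to 10–20 min per step). Titrations used 100 mM Tris-HCl pH 7.5, 80 mM KCl, 4 mM MgCl2, without or with constant ligand.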

| Sequence | apparent KD of MS2 coat protein |
| --- | --- |
| AAAAAACAUGAGGAUCACCCAUGUGAGGAUAUCUGUAUCCAAAAGGAAGUGUAGGAUCGGAGAAGGCACUAGGA [Banishment 1 - Jieux - Exclusion 1] | 36.5 nM |
| GCUUGUCAAGGAUAUACAUGAGGAUCACCCAUGUGAGAGAAAAAAGUGAGAAAGAAAAGUAGAAGGUGGUGAGG [salish99-ex3-78] | 33.3 nM |
| GAAAAACAUGAGGAUCACCCAUGUUAGGAUAUGCUAUGGAAAAAUAAAAUAAAACAUAGCAGAAGGGACAAAAG [Mat - Exclusion 1 - Eli mod - D29] | 24.7 nM |
| AAAAAACAUGAGGAUCACCCAUGUGAGGAUAUGAACGAAAUAAAAUAAAAAUAAAAGUUCAGAAGGCACAAAAA [Mat - Exclusion 1 - Eli mod - D11] | 33.2 nM |
| AAGAAGUAAGGAUAUGCUGCUCGUCACAAAAGUGAUGAGUAGCAGAAGGUACAUGAGGAUCACCCAUGUUAAGA [JL eternac mod 4] | 24.4 nM |
| AGAAAGCGAGGAUAUGCUCGGGUUGAAUGACGAGAGAAUACACAUGAGGAUCACCCAUGUAGAAGGUGUAUAAA [JR_Exc002_Sub1712] | 54 nM |
| ACUUGACAUGAGGAUCACCCAUGUCAGGAUAUAGUACGACAAAUAAAUAAAAGUUCUACUAGAAGGGAUAUGGA [Amethyst 53] | 17 nM |
| AGUUGGCGAGGAUAUACAUGAGGAUCACCCAUGUAAAAUAAAUAAAAAGGGAAAAAGAGUAGAAGGCGCUGACA [73%, Moding Norbert Elias, 8] | 42.6 nM |
| AAAAAGGGAGGAUAUGCAAAAAAAAAAAAAAAAAAAAAAAAACAUGAGGAUCACCCAUGUAGAAGGCCCAAAAA [Dora Baggins - Jieux - Exclusion 2] | 32.4 nM |
| AACAGGUCAGGAUAUGUGGAAAAAAUAAAAAAAAUAAAAACACAGAAGGGACAUGAGGAUCACCCAUGUAUAUA [May 21] | 89.4 nM |
| GGAUGUCAAGGAUAUACAUGAGGAUCACCCAUGUGAGAGAAAAAAGUGAGAAAGAAAAGUAGAAGGUGGUGUCG [salish99-ex3-87] | 38.5 nM |
| AAAAAUGGAGGAUAUACAUGAGGAUCACCCAUGUGUAUAAAAAAAUACACAAAAGAAAGUAGAAGGCCAUAAAA [Ex 3 Ice] | 35 nM |
| AAAGGACAUGAGGAUCACCCAUGUGAGGAUAUCGGAAAAGGAAAAAUAAAAAAGAAGACGAGAAGGCACACCAA [Mat - Exclusion 1 - Eli mod - D76] | 80.6 nM |
| AAGAAGUCAGGAUAUGCUGCUCGUCACUUGCGUGAUGAGUAGCAGAAGGGACAUGAGGAUCACCCAUGUAAAGA [Exclusion4-cac2] | 50.7 nM |
| AGCUAGUCAGGAUAUACGAACAGGUCAAAAGACUUGAAGGGACAUGAGGAUCACCCAUGUAGAAGGGACUAGCA [Mat - Exclusion 2 - JL mod - D25] | 32.2 nM |
| AGCUAGUCAGGAUAUACGAACAUGUCACAAGACGUGAAGGGACAUGAGGAUCACCCAUGUAGAAGGGACUAGCA [74%, Web mod - With 1 more C's] | 52.9 nM |
| AAAAAGAUAGGAUAUACGUACAUGUCAAAAGACGUGAAGGGACAUGAGGAUCACCCAUGUAGAAGGGUUAAAAA [JL Wide Open 41] | 285 nM |
| AAAGUGUGAGGAUAUGUCAAAGGACACGAAAGUGACAAAGGACAGAAGGUACAUGAGGAUCACCCAUGUAAAAA [milkweed 18] | 27.3 nM |
| AACAGUACAGGAUAUACAUGAGGAUCACCCAUGUGAGAAUUAAGUGGCGUACCACAAAGUAGAAGGGUACUGGA [Maslow Revisited] | 35 nM |
| AGGAAACAUGAGGAUCACCCAUGUGAGGAUAUAGAAAAGAAAAGAAAAGAAAGAAGAACUAGAAGGUACAAGAA [Menkauhor Kaiu] | 21 nM |
| UAUAGACAUGAGGAUCACCCAUGUGAGGAUAUCGGUAACUACAAAACAUCACAUACAACGAGAAGGCACAGAAA [JR_Exc001_Sub013] | 41.5 nM |
| AAUAUGUCAGGAUAUGUGUAAAGAAUAAAAGAAAUAACAACACAGAAGGGACAUGAGGAUCACCCAUGUCAACA [May 33] | 24.8 nM |

| Sequence | apparent KD of MS2 coat protein |
| --- | --- |
| ACAAAACAUGAGGAUCACCCAUGUGAGGAUAUGCGAAACAAACAAACAAACAAACAAAGCAGAAGGCACAACAA [Ex 1 Tesla 3] | 19.5 nM |
| AACAAGUCAGGAUAUCCGAAAAGUAAAUAAGUAAAACAAAAGGAGAAGGGACAUGAGGAUCACCCAUGUAAAUA [JR_Exc004_Sub015] | 48.1 nM |
| AAAAAGGUAGGAUAUACGAAAAAAAAAGGUGAAAAAAAAAAACAUGAGGAUCACCCAUGUAGAAGGACCAAAAA [Ex 2 sub 1 70% 2] | 39.3 nM |
| AAGUGCGCAGGAUAUACAUGAGGAUCACCCAUGUAAAGAAAAGAAAGAUCCGAAGAAAGUAGAAGGGCGUGCAA [Variant 1 of Mod 1 of Ex3 sub 3, by Tesla's Dusciple Round 1] | 49.6 nM |
| AAGAAGUGAGGAUAUGUCUGUGCGAAAAAAAAAAAGUGCAGACAGAAGGCACAUGAGGAUCACCCAUGUAAAAA [Florian 65% 2] | 37.5 nM |
| GAGAAGUUAGGAUAUGCGGAGGGAAGGAAGGAAAGGGAAGGGCAGAAGGAACAUGAGGAUCACCCAUGUAAGAG [salish99-ex4-02] | 35.9 nM |
| AGCUAGUCAGGAUAUACAAAAUGAUUGCAAAAGCAAUCAACACAUGAGGAUCACCCAUGUAGAAGGGACUAGCA [Mat - Exclusion 2 - JL-Eli mod - D44] | 19 nM |
| AACAGUACAGGAUAUACAUGAGGAUCACCCAUGUAAAAUAAAUAAAAAUAAAAGGGAAGUAGAAGGGUACUGGA [Moding Maslow revisited (73) 17] | 31.6 nM |
| AAUGGUGCAGGAUAUACAUGAGGAUCACCCAUGUAGAUCAGACAUAUGGUCGAAACAUGUAGAAGGGCACCAAA [Ex 3May 54] | 112 nM |
| AAGAAGUAAGGAUAUCGUGCUCGUCACAAAAGUGAUGAGUACGAGAAGGUACAUGAGGAUCACCCAUGUAAAGA [Opal 35] | 24.6 nM |
| AAAAAACAUGAGGAUCACCCAUGUGAGGAUAUACUAAACAAAAAAAACAAAAACAAAUGUAGAAGGCACAAAAA [Amethyst 36] | 19 nM |
| CCUCGACAUGAGGAUCACCCAUGUUAGGAUAUAUACAAACCCGAAAACCAAGGGCAAAAUAGAAGGAACGUGCA [Masoedma] | 14.8 nM |
| AACAGUACAGGAUAUACAUGAGGAUCACCCAUGUAAAAAUAAAAGGGCGUACCACAAAGUAGAAGGGUACUGGA [Moding Maslow revisited (73) 12] | 44.7 nM |
| CUCAAGUUAGGAUAUACAAGAAAAGAAGAGAAAGAAAAGAAGUAGAAGGAACAUGAGGAUCACCCAUGUAAGAA [EteRNA is fun!] | 33.2 nM |
| AACAAACAUGAGGAUCACCCAUGUCAGGAUAUGCAUAAAUAAAUAAAUAAAUAAAUAAGCAGAAGGGACACAAC [Amethyst 90] | 45.1 nM |
| AGGAAACAUGAGGAUCACCCAUGUAAGGAUAUGAACGAAAAUAAAUAAAAAUAAAAGUUCAGAAGGUACGAAAA [66%, Wbt, 7] | 30.7 nM |
| UAGGUACGAGGAUAUACAUAGAUACAGACACAUGUAGAUGUACAUGAGGAUCACCCAUGUAGAAGGCGUAUAUA [Mat - Same state - Mayanna Mod - D110] | 52.6 nM |
| AAAAAACAUGAGGAUCACCCAUGUGAGGAUAUGCUGCGAAUAAAGAAAGAAGAAAGCAGCAGAAGGCACACCAA [Amethyst 77] | 26.5 nM |
| AUAAAACAUGAGGAUCACCCAUGUGAGGAUAUGCGAAAUAAAGAAAUAAAUAAAUAAAGCAGAAGGCACAAUAA [Ex 1 Tesla 1] | 34.6 nM |
| AACAAACAUGAGGAUCACCCAUGUGAGGAUAUCGGAUGUACAGCGCAAUUAGAAUUAACGAGAAGGCACACUUA [Ex1_Neo] | 22.7 nM |
| AUCUACCUAGGAUAUACAUGAGGAUCACCCAUGUACAGUUUCAACUAGGGAAACUCACGUAGAAGGAGGUAGAU [JR_Exc003_Sub1209] | 48.2 nM |
| GAAAAGUCAGGAUAUAUAGGAAAAAUAAAAAAAAUAAAACUAUAGAAGGGACAUGAGGAUCACCCAUGUUAAAA [Mat - Exclusion 4 - Mayanna - D131] | 43.9 nM |
